Measurements from publication doi:10.1101/2021.01.04.425348 (bioRxiv, 2021).

Target: the molecule itself
Experiment: high-speed atomic force microscopy

B1: PDI I289A (enzyme)
chain: not shown
B1 was tested, and the “stoichiometry N” value was 2.
